In patent publication US20180362665A1 (KATHOLIEKE UNIVERSITEIT LEUVEN, published 2018):

Biological target: ovine ADAMTS13 (in sheep plasma) (sheep)
Assay: cell-based or functional assay

B1: anti-ADAMTS13 monoclonal antibody 17C7 (antibody, V domains shown)
VH: EVQLVESGGDLVKSGGSLKLSCAASGFIFSNYAMSWVRQTPEKRLEWGATITTGGFYTFYSDSVKGRFTISRDNAKNTLYLQMSSLRSEDTAMYYCARHRYDDYYALDYWGQGTSVTVSS
VL: ENVLTQSPAIMSTSPGEKVTMTCNVSSSVSYMRWFQQKSSTSPKLWIYDTSKLASGVPGRFSGSGSGHSYSLTISSMEADDVATYYCFQGNGYPLTFGAGTKLELK
With B1 the “half maximal inhibitory concentration (IC50) of ADAMTS13 activity in ovine plasma, FRETS-VWF71 assay” value was 2.4 µg/mL.
